In patent publication US20260055172A1:

Biological target: human complement protein C1q (human) (UniProt P02745)
Test: ELISA, 10 µg/ml human C1q, detection with HRP-conjugated anti-C1q antibody, antibody concentration varied

human complement protein C1q (human), sequence (P02745 23-245 limits assumed, chain 1 of 3): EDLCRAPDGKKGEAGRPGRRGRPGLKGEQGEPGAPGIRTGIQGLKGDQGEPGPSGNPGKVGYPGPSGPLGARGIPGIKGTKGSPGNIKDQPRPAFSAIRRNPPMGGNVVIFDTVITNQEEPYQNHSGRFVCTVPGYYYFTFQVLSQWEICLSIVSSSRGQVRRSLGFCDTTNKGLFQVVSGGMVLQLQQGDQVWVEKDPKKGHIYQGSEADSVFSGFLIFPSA
human complement protein C1q (human), sequence (P02746 28-253 limits assumed, chain 2 of 3, further chain): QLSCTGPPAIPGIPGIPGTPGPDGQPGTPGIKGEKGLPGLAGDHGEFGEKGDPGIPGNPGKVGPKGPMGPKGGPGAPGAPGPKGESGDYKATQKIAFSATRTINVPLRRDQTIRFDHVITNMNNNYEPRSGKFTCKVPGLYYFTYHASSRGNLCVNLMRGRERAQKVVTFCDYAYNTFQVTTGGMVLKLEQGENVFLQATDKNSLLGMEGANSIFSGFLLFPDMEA
human complement protein C1q (human), sequence (P02747 29-245 limits assumed, chain 3 of 3, further chain): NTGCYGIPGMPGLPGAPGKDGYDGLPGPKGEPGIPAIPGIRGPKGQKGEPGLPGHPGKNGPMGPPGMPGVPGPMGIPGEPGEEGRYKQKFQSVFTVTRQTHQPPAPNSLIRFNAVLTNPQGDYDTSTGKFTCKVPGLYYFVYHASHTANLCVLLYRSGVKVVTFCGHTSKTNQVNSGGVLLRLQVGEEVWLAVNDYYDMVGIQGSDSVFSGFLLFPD

EC50 (read off the curve): 2 µg/mL
Substance: Rituximab (antibody)
